The results in this text go back to the Human Domainome abundance scans (Beltran et al. 2025).

± gives the uncertainty stated by the source.

B1: Homeobox protein cut-like 2, residues 895 to 963; numbered along this chain, O14529 (parent)
chain: EVDTLELTRQVKEKLAKNGICQRIFGEKVLGLSQGSVSDMLSRPKPWSKLTQKGREPFIRMQLWLSDQL

The variants in this data set derive from B1. Put plainly: abundance fitness (aPCA) (normalised: wild type 0, dead -1); higher = more abundant; growth selection in yeast, the domain comes from the species named. Conditions: Homo sapiens.
In the case of EVDTLELTRQVKEKLAKNGICQIIFGEKVLGLSQGSVSDMLSRPKPWSKLTQKGREPFIRMQLWLSDQL [R23I], the abundance fitness was -0.192 ± 0.094.

As to EVDTLELTRQVKEKLAKNGICQDIFGEKVLGLSQGSVSDMLSRPKPWSKLTQKGREPFIRMQLWLSDQL [R23D], the abundance fitness is -0.042 ± 0.15.

Regarding EVDTLELTRQVKEKLAKNGICQHIFGEKVLGLSQGSVSDMLSRPKPWSKLTQKGREPFIRMQLWLSDQL [R23H], the abundance fitness is -0.094 ± 0.096.

In the case of EVDTLELTRQVKEKLAKNGICQAIFGEKVLGLSQGSVSDMLSRPKPWSKLTQKGREPFIRMQLWLSDQL [R23A], the abundance fitness was -0.106 ± 0.039.

As for EVDTLELTRQVKEKLAKNGICQFIFGEKVLGLSQGSVSDMLSRPKPWSKLTQKGREPFIRMQLWLSDQL [R23F], the abundance fitness was -0.009 ± 0.056.

EVDTLELTRQVKEKLAKNGICQCIFGEKVLGLSQGSVSDMLSRPKPWSKLTQKGREPFIRMQLWLSDQL [R23C]: the abundance fitness is -0.317 ± 0.091.

EVDTLELTRQVKEKLAKNGICQGIFGEKVLGLSQGSVSDMLSRPKPWSKLTQKGREPFIRMQLWLSDQL [R23G]: the abundance fitness is -0.103 ± 0.048.

For EVDTLELTRQVKEKLAKNGICQEIFGEKVLGLSQGSVSDMLSRPKPWSKLTQKGREPFIRMQLWLSDQL [R23E], the abundance fitness was 0.068 ± 0.047.

On to EVDTLELTRQVKEKLAKNGICFRIFGEKVLGLSQGSVSDMLSRPKPWSKLTQKGREPFIRMQLWLSDQL [Q22F], for which the abundance fitness is -0.182 ± 0.07.

On to EVDTLELTRQVKEKLAKNGICHRIFGEKVLGLSQGSVSDMLSRPKPWSKLTQKGREPFIRMQLWLSDQL [Q22H], for which the abundance fitness is -0.239 ± 0.12.

As to EVDTLELTRQVKEKLAKNGICIRIFGEKVLGLSQGSVSDMLSRPKPWSKLTQKGREPFIRMQLWLSDQL [Q22I], the abundance fitness is -0.223 ± 0.1.

Regarding EVDTLELTRQVKEKLAKNGICGRIFGEKVLGLSQGSVSDMLSRPKPWSKLTQKGREPFIRMQLWLSDQL [Q22G], the abundance fitness was -0.354 ± 0.049.

For the variant EVDTLELTRQVKEKLAKNGICVRIFGEKVLGLSQGSVSDMLSRPKPWSKLTQKGREPFIRMQLWLSDQL [Q22V], the abundance fitness was -0.116 ± 0.041.

Turning to EVDTLELTRQVKEKLAKNGICKRIFGEKVLGLSQGSVSDMLSRPKPWSKLTQKGREPFIRMQLWLSDQL [Q22K], the abundance fitness is -0.095 ± 0.064.

Consider EVDTLELTRQVKEKLAKNGICMRIFGEKVLGLSQGSVSDMLSRPKPWSKLTQKGREPFIRMQLWLSDQL [Q22M], for which the abundance fitness was -0.071 ± 0.046.

EVDTLELTRQVKEKLAKNGICRRIFGEKVLGLSQGSVSDMLSRPKPWSKLTQKGREPFIRMQLWLSDQL [Q22R]: the abundance fitness was -0.062 ± 0.044.

In the case of EVDTLELTRQVKEKLAKNGICDRIFGEKVLGLSQGSVSDMLSRPKPWSKLTQKGREPFIRMQLWLSDQL [Q22D], the abundance fitness was -0.457 ± 0.21.

For the variant EVDTLELTRQVKEKLAKNGICLRIFGEKVLGLSQGSVSDMLSRPKPWSKLTQKGREPFIRMQLWLSDQL [Q22L], the abundance fitness was -0.003 ± 0.032.

Take EVDTLELTRQVKEKLAKNGICNRIFGEKVLGLSQGSVSDMLSRPKPWSKLTQKGREPFIRMQLWLSDQL [Q22N]: the abundance fitness was -0.461 ± 0.14.

Take EVDTLELTRQVKEKLAKNGICSRIFGEKVLGLSQGSVSDMLSRPKPWSKLTQKGREPFIRMQLWLSDQL [Q22S]: the abundance fitness was -0.089 ± 0.032.

With EVDTLELTRQVKEKLAKNGICARIFGEKVLGLSQGSVSDMLSRPKPWSKLTQKGREPFIRMQLWLSDQL [Q22A], the abundance fitness is -0.098 ± 0.05.

On to EVDTLELTRQVKEKLAKNGICERIFGEKVLGLSQGSVSDMLSRPKPWSKLTQKGREPFIRMQLWLSDQL [Q22E], for which the abundance fitness is -0.011 ± 0.061.

As for EVDTLELTRQVKEKLAKNGICWRIFGEKVLGLSQGSVSDMLSRPKPWSKLTQKGREPFIRMQLWLSDQL [Q22W], the abundance fitness is -0.021 ± 0.042.

As for EVDTLELTRQVKEKLAKNGICPRIFGEKVLGLSQGSVSDMLSRPKPWSKLTQKGREPFIRMQLWLSDQL [Q22P], the abundance fitness was -0.073 ± 0.06.

With EVDTLELTRQVKEKLAKNGICTRIFGEKVLGLSQGSVSDMLSRPKPWSKLTQKGREPFIRMQLWLSDQL [Q22T], the abundance fitness is -0.151 ± 0.059.

As for EVDTLELTRQVKEKLAKNGICCRIFGEKVLGLSQGSVSDMLSRPKPWSKLTQKGREPFIRMQLWLSDQL [Q22C], the abundance fitness was -0.306 ± 0.1.

Consider EVDTLELTRQVKEKLAKYGICQRIFGEKVLGLSQGSVSDMLSRPKPWSKLTQKGREPFIRMQLWLSDQL [N18Y], for which the abundance fitness is -0.128 ± 0.057.

Regarding EVDTLELTRQVKEKLAKWGICQRIFGEKVLGLSQGSVSDMLSRPKPWSKLTQKGREPFIRMQLWLSDQL [N18W], the abundance fitness is -0.102 ± 0.041.

For EVDTLELTRQVKEKLAKNFICQRIFGEKVLGLSQGSVSDMLSRPKPWSKLTQKGREPFIRMQLWLSDQL [G19F], the abundance fitness was -0.226 ± 0.041.

For EVDTLELTRQVKEKLAKNRICQRIFGEKVLGLSQGSVSDMLSRPKPWSKLTQKGREPFIRMQLWLSDQL [G19R], the abundance fitness amounted to 0.032 ± 0.065.

Regarding EVDTLELTRQVKEKLAKNWICQRIFGEKVLGLSQGSVSDMLSRPKPWSKLTQKGREPFIRMQLWLSDQL [G19W], the abundance fitness is -0.341 ± 0.06.

With EVDTLELTRQVKEKLAKNIICQRIFGEKVLGLSQGSVSDMLSRPKPWSKLTQKGREPFIRMQLWLSDQL [G19I], the abundance fitness is -0.434 ± 0.057.

With EVDTLELTRQVKEKLAKNTICQRIFGEKVLGLSQGSVSDMLSRPKPWSKLTQKGREPFIRMQLWLSDQL [G19T], the abundance fitness was -0.332 ± 0.097.

Regarding EVDTLELTRQVKEKLAKNAICQRIFGEKVLGLSQGSVSDMLSRPKPWSKLTQKGREPFIRMQLWLSDQL [G19A], the abundance fitness was -0.32 ± 0.095.

With EVDTLELTRQVKEKLAKNQICQRIFGEKVLGLSQGSVSDMLSRPKPWSKLTQKGREPFIRMQLWLSDQL [G19Q], the abundance fitness is -0.242 ± 0.07.

With EVDTLELTRQVKEKLAKNYICQRIFGEKVLGLSQGSVSDMLSRPKPWSKLTQKGREPFIRMQLWLSDQL [G19Y], the abundance fitness was -0.122 ± 0.057.

As to EVDTLELTRQVKEKLAKNKICQRIFGEKVLGLSQGSVSDMLSRPKPWSKLTQKGREPFIRMQLWLSDQL [G19K], the abundance fitness was 0.009 ± 0.041.

EVDTLELTRQVKEKLAKNHICQRIFGEKVLGLSQGSVSDMLSRPKPWSKLTQKGREPFIRMQLWLSDQL [G19H]: the abundance fitness is -0.374 ± 0.33.

On to EVDTLELTRQVKEKLAKNLICQRIFGEKVLGLSQGSVSDMLSRPKPWSKLTQKGREPFIRMQLWLSDQL [G19L], for which the abundance fitness is -0.31 ± 0.025.
